Data taken from the RNAGym collection of RNA variant scans (doi:10.1093/molbev/msab373).

B1: Azoarcus group I ribozyme (parent)
chain: GUGCCUUGCGCCGGGAAACCACGCAAGGGAUGGUGUCAAAUUCGGCGAAACCUAAGCGCCCGCCCGGGCGUAUGGCAACGCCGAGCCAAGCUUCGGCGCCUGCGCCGAUGAAGGUGUAGAGACUAGACGGCACCCACCUAAGGCAAACGCUAUGGUGAAGGCAUAGUCCAGGGAGUGGCGAAAGUCACACAAACCGG

Variants of: B1
Test: reverse-splicing fitness (ratio to wild type); higher = more active; in vitro selection; Mg2+ level not given
In short: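 An in vitro group I ribozyme library with randomized positions was T7-transcribed and gel-purified. In triplicate, 10 pmol RNA in EPPS pH 7.5 was reacted with 50 pmoles of a 30-nt RNA substrate for 1 h at 37 °C across several added MgCl2 levels (1–48 mM), then stopped with EDTA. Products were reverse transcribed from a substrate-complementary primer, PCR-amplified and sequenced (HiSeq 4000). Fitness is a variant's read proportion after selection over that before, normalised to wild type.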

| Variant | reverse-splicing fitness |
| --- | --- |
| GUGCCUUGCGCCGGGAAACCACGCAAGGGAUGGUGUCAAAUUCGGCGAAACCUAAGCGCCCGCCCGGGCGUAUGGCAACGCUGAGCCAAGCUUCGGCGCCUGCGCCGAUGAAGGUGUAGGGACUAGACGGCACCCACCUAAGGCCAACGCUAUGGUGAAGGCAUAGUCCAGGGAGGGGCGAAAGUCACACAAACCGG | 0.00356 |
| GUGCCUUGCGCCGGGAAACCACGCAAGGGAUGGUGUCAAAUUCGGCGAAACCUAAGCGCCCGCCCGGGCGUAUGGCAACGCUGAGCCAAGCUUCGGCGCCUGCGCCGAUGAAGGUGUAGGGACUAGACGGCACCCACCUAAGGCCAACGCUAUGGUGAAGGCAUAGUCCAGGGAGAGGCGAAAGUCACACAAACCGG | 0.0109 |
| GUGCCUUGCGCCGGGAAACCACGCAAGGGAUGGUGUCAAAUUCGGCGAAACCUAAGCGCCCGCCCGGGCGUAUGGCAACGCUGAGCCAAGCUUCGGCGCCUGCGCCGAUGAAGGUGUAGGGACUAGACGGCACCCACCUAAGGCCAACGCUAUGGUGAAGGCAUAGUCCAGGGAGCGGCGAAAGUCACACAAACCGG | 0.0121 |
| GUGCCUUGCGCCGGGAAACCACGCAAGGGAUGGUGUCAAAUUCGGCGAAACCUAAGCGCCCGCCCGGGCGUAUGGCAACGCUGAGCCAAGCUUCGGCGCCUGCGCCGAUGAAGGUGUAGGGACUAGACGGCACCCACCUAAGGCGAACGAUAUGGUGAAGGCAUAGUCUAGGGAGUGGCGAAAGUCACACAAACCGG | 0.0101 |
| GUGCCUUGCGCCGGGAAACCACGCAAGGGAUGGUGUCAAAUUCGGCGAAACCUAAGCGCCCGCCCGGGCGUAUGGCAACGCUGAGCCAAGCUUCGGCGCCUGCGCCGAUGAAGGUGUAGGGACUAGACGGCACCCACCUAAGGCGAACGAUAUGGUGAAGGCAUAGUCGAGGGAGUGGCGAAAGUCACACAAACCGG | 0.0101 |
| GUGCCUUGCGCCGGGAAACCACGCAAGGGAUGGUGUCAAAUUCGGCGAAACCUAAGCGCCCGCCCGGGCGUAUGGCAACGCUGAGCCAAGCUUCGGCGCCUGCGCCGAUGAAGGUGUAGGGACUAGACGGCACCCACCUAAGGCGAACGAUAUGGUGAAGGCAUAGUCAAGGGAGUGGCGAAAGUCACACAAACCGG | 0.0113 |
| GUGCCUUGCGCCGGGAAACCACGCAAGGGAUGGUGUCAAAUUCGGCGAAACCUAAGCGCCCGCCCGGGCGUAUGGCAACGCUGAGCCAAGCUUCGGCGCCUGCGCCGAUGAAGGUGUAGGGACUAGACGGCACCCACCUAAGGCGAACGAUAUGGUGAAGGCAUAGUCCAGGGAGUGGCGAAAGUCACACAAACCGG | 0.00966 |
| GUGCCUUGCGCCGGGAAACCACGCAAGGGAUGGUGUCAAAUUCGGCGAAACCUAAGCGCCCGCCCGGGCGUAUGGCAACGCUGAGCCAAGCUUCGGCGCCUGCGCCGAUGAAGGUGUAGGGACUAGACGGCACCCACCUAAGGCGAACGAUAUGGUGAAGGCAUAGUCGAGGGAGAGGCGAAAGUCACACAAACCGG | 0.0157 |
| GUGCCUUGCGCCGGGAAACCACGCAAGGGAUGGUGUCAAAUUCGGCGAAACCUAAGCGCCCGCCCGGGCGUAUGGCAACGCUGAGCCAAGCUUCGGCGCCUGCGCCGAUGAAGGUGUAGGGACUAGACGGCACCCACCUAAGGCGAACGAUAUGGUGAAGGCAUAGUCGAGGGAGCGGCGAAAGUCACACAAACCGG | 0.0255 |
| GUGCCUUGCGCCGGGAAACCACGCAAGGGAUGGUGUCAAAUUCGGCGAAACCUAAGCGCCCGCCCGGGCGUAUGGCAACGCUGAGCCAAGCUUCGGCGCCUGCGCCGAUGAAGGUGUAGGGACUAGACGGCACCCACCUAAGGCGAACGAUAUGGUGAAGGCAUAGUCGAGGGAGGGGCGAAAGUCACACAAACCGG | 0.00413 |
| GUGCCUUGCGCCGGGAAACCACGCAAGGGAUGGUGUCAAAUUCGGCGAAACCUAAGCGCCCGCCCGGGCGUAUGGCAACGCUGAGCCAAGCUUCGGCGCCUGCGCCGAUGAAGGUGUAGGGACUAGACGGCACCCACCUAAGGCCAACGCUAUGGUGAAGGCAUAGUCAAGGGAGUGGCGAAAGUCACACAAACCGG | 0.014 |
| GUGCCUUGCGCCGGGAAACCACGCAAGGGAUGGUGUCAAAUUCGGCGAAACCUAAGCGCCCGCCCGGGCGUAUGGCAACGCUGAGCCAAGCUUCGGCGCCUGCGCCGAUGAAGGUGUAGGGACUAGACGGCACCCACCUAAGGCCAACGCUAUGGUGAAGGCAUAGUCUAGGGAGUGGCGAAAGUCACACAAACCGG | 0.0172 |
| GUGCCUUGCGCCGGGAAACCACGCAAGGGAUGGUGUCAAAUUCGGCGAAACCUAAGCGCCCGCCCGGGCGUAUGGCAACGCUGAGCCAAGCUUCGGCGCCUGCGCCGAUGAAGGUGUAGGGACUAGACGGCACCCACCUAAGGCCAACGCUAUGGUGAAGGCAUAGUCGAGGGAGUGGCGAAAGUCACACAAACCGG | 0.0218 |
| GUGCCUUGCGCCGGGAAACCACGCAAGGGAUGGUGUCAAAUUCGGCGAAACCUAAGCGCCCGCCCGGGCGUAUGGCAACGCUGAGCCAAGCUUCGGCGCCUGCGCCGAUGAAGGUGUAGGGACUAGACGGCACCCACCUAAGGCGAACGCUAUGGUGAAGGCAUAGUCCAGGGAGUGGCGAAAGUCACACAAACCGG | 0.0245 |
| GUGCCUUGCGCCGGGAAACCACGCAAGGGAUGGUGUCAAAUUCGGCGAAACCUAAGCGCCCGCCCGGGCGUAUGGCAACGCUGAGCCAAGCUUCGGCGCCUGCGCCGAUGAAGGUGUAGGGACUAGACGGCACCCACCUAAGGCGAACGAUAUGGUGAAGGCAUAGUCUAGGGAGCGGCGAAAGUCACACAAACCGG | 0.0166 |
